# Reference: publication PMC4890318
# Target: wild-type human dopamine transporter (human) (UniProt Q01959)
# UniProt Q01959, sequence (Q01959 whole entry): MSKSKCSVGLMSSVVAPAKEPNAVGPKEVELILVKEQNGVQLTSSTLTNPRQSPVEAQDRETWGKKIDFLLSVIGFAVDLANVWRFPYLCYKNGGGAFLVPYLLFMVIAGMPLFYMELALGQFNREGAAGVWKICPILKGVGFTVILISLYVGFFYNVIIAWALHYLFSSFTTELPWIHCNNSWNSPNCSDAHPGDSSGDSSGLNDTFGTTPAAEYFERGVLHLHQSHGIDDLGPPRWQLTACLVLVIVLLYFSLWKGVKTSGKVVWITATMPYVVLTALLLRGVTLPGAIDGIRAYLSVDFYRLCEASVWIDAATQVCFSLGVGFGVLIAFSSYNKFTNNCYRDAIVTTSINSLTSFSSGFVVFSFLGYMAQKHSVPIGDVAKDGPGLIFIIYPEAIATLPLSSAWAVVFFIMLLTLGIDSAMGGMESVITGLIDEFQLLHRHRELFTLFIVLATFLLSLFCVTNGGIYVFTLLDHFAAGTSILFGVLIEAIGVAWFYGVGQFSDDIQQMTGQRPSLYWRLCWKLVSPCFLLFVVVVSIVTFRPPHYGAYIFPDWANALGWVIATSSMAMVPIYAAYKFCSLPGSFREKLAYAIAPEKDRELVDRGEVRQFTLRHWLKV
substance,measurement,value
recombinant HIV-1 Tat 1-86 (from UniProt P04608 1-86) (natural protein),"decrease of [3H]DA uptake in PC12 cells transfected with WT hDAT after 20 min preincubation with 140 nM Tat1-86, against control without Tat",35%
